Data on four molecules can be found in article doi:10.1101/2025.06.12.659319.

Test [1] has as its target FITC-ΔNp63α NLSbip peptide (residues 278-302) (human). Briefly: fluorescence polarisation. A general note: In fluorescence polarisation assays a small probe gives low polarisation when free and higher when bound to something large.
Test [2] addresses T1, ΔNp63α (RLuc- and YFP-fusions, full length) (human), Q9H3D4.
T1 chain: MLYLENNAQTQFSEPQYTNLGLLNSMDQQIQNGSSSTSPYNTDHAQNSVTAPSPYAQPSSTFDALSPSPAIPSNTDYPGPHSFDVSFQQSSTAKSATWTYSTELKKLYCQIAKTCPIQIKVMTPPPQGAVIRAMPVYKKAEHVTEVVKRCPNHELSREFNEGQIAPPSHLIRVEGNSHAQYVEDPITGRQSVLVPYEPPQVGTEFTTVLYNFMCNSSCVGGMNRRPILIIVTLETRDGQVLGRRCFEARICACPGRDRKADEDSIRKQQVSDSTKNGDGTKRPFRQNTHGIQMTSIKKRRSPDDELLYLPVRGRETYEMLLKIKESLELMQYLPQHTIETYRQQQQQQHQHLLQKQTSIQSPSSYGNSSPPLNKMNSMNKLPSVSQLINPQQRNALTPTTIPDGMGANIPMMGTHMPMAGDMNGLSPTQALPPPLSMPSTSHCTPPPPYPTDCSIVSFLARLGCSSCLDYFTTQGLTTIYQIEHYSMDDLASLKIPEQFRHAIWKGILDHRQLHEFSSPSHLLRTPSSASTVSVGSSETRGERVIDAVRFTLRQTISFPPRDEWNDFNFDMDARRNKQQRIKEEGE
Briefly: FRET or BRET. The conditions noted are these: remark: other sources report otherwise.

By Kd is commonly meant the concentration at which binding is half-saturated. Higher therefore signals weaker binding. “human IMPα1ΔIBB (importin α1 lacking the IMPβ1 binding domain) (domain or fragment)” had an equilibrium dissociation constant (Kd) in test [1] of 4.3 nM.

Molecule “human IMPα3ΔIBB (importin α3 lacking the IMPβ1 binding domain) (domain or fragment)” yielded an equilibrium dissociation constant (Kd) in test [1] of 6.7 nM.

Regarding “human IMPα7ΔIBB (importin α7 lacking the IMPβ1 binding domain) (domain or fragment)”, the Kd in test [1] stood at 4.6 nM. This Kd and that of the molecule before are within 1.5-fold of each other.

B1: ΔNp63α (RLuc- and YFP-fusions, full length), Q9H3D4-2 1-586 (natural protein)
chain: MLYLENNAQTQFSEPQYTNLGLLNSMDQQIQNGSSSTSPYNTDHAQNSVTAPSPYAQPSSTFDALSPSPAIPSNTDYPGPHSFDVSFQQSSTAKSATWTYSTELKKLYCQIAKTCPIQIKVMTPPPQGAVIRAMPVYKKAEHVTEVVKRCPNHELSREFNEGQIAPPSHLIRVEGNSHAQYVEDPITGRQSVLVPYEPPQVGTEFTTVLYNFMCNSSCVGGMNRRPILIIVTLETRDGQVLGRRCFEARICACPGRDRKADEDSIRKQQVSDSTKNGDGTKRPFRQNTHGIQMTSIKKRRSPDDELLYLPVRGRETYEMLLKIKESLELMQYLPQHTIETYRQQQQQQHQHLLQKQTSIQSPSSYGNSSPPLNKMNSMNKLPSVSQLINPQQRNALTPTTIPDGMGANIPMMGTHMPMAGDMNGLSPTQALPPPLSMPSTSHCTPPPPYPTDCSIVSFLARLGCSSCLDYFTTQGLTTIYQIEHYSMDDLASLKIPEQFRHAIWKGILDHRQLHEFSSPSHLLRTPSSASTVSVGSSETRGERVIDAVRFTLRQTISFPPRDEWNDFNFDMDARRNKQQRIKEEGE
With B1, the BRET ratio in test [2] stood at 0.18.
